The results in this text go back to publication doi:10.1101/2025.10.11.676729.

In this assay the target is Pyrococcus abyssi 70S ribosome (Pyrococcus abyssi (endogenous in P. abyssi)) (UniProt Q9V109). Put plainly: cryo-EM structure.
Chain of UniProt Q9V109 (Q9V109 whole entry, looked up): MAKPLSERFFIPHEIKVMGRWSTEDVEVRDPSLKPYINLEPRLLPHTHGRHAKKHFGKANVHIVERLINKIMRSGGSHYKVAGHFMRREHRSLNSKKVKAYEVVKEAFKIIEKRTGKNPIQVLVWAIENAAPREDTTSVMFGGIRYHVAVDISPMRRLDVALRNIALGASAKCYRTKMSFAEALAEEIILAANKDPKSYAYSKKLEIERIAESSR

B1: Hib, endogenous, bound to ribosomes isolated from Pyrococcus abyssi cell extracts (natural protein)
chain: MVGIQVQEVMTDRYAKIDINAPLSEAIGIIEKEDPDLILVFDDNVYKGVLTQDLIIRSHLKWDPTKAKVRDVYKPAPVVKPTDDLSHAAKLLLETDLRSLPVGENKAEILGVISDMALLERVVAEEFGKRKVEEFMTKDVITLGPDDTVAKALATMRDHGISRIPVVDEEGKLEGLVTLHDLIIRFIKPRFKAQYGELAGEKIPPFSMKLREAMIKGVITIMPEATIREAVSTMKDNNIDGLVVVDENNKVVGILTVKDLLLPISRMVEKEARFYLQLGGDASALSEFTRERIINDIKRFVDGYADLLGNEGIIYLYIRRFNEKFRGVHLYQARMRVVTDRGVFIARGETWGAIQAVHDAIRAIERQLLQKAELERDIRYAKRFIEKLELWR
Take B1: the percent of 70S particles that contained Hib worked out at 51.6%.
